Results published in paper PMC5153249.
pKd: −log10 of the molar value. “And” between values parts separate entries of the source, which are not always exact repeats. Equal entries are not always repeated.

What was measured:
[1] = tested on: yeast 43S PIC: 40S+eIF1+eIF1A+eIF2 (Met-tRNAi TC); for mRNA recruitment also eIF5, eIF4A, eIF4B, eIF4E-eIF4G;eIF3 a/b/c sub-complex (Saccharomyces cerevisiae;Saccharomyces cerevisiae); assay: EMSA; details: measurement 1; m7G cap; 30 mM HEPES-KOH pH 7.4, 100 mM KOAc, 3 mM Mg(OAc)2, 2 mM DTT, 1 mM GDPNP, 26 C, 2 h; native 4% THEM gel
[2] = tested on: yeast 43S PIC: 40S+eIF1+eIF1A+eIF2 (Met-tRNAi TC); for mRNA recruitment also eIF5, eIF4A, eIF4B, eIF4E-eIF4G (Saccharomyces cerevisiae); assay: EMSA; details: no eIF3, measurement 1, m7G cap, 30 mM HEPES-KOH pH 7.4, 100 mM KOAc, 3 mM Mg(OAc)2, 2 mM DTT, 1 mM GDPNP, 26 C, 2 h, native 4% THEM gel
[3] = tested on: yeast 43S PIC: 40S+eIF1+eIF1A+eIF2 (Met-tRNAi TC); for mRNA recruitment also eIF5, eIF4A, eIF4B, eIF4E-eIF4G;eIF3 (a R731I) (Saccharomyces cerevisiae;Saccharomyces cerevisiae); assay: EMSA; details: measurement 1; m7G cap; 30 mM HEPES-KOH pH 7.4, 100 mM KOAc, 3 mM Mg(OAc)2, 2 mM DTT, 1 mM GDPNP, 26 C, 2 h; native 4% THEM gel
[4] = tested on: yeast 43S PIC: 40S+eIF1+eIF1A+eIF2 (Met-tRNAi TC); for mRNA recruitment also eIF5, eIF4A, eIF4B, eIF4E-eIF4G;eIF3 (a delta8) (Saccharomyces cerevisiae;Saccharomyces cerevisiae); assay: EMSA; details: measurement 1, m7G cap, 30 mM HEPES-KOH pH 7.4, 100 mM KOAc, 3 mM Mg(OAc)2, 2 mM DTT, 1 mM GDPNP, 26 C, 2 h, native 4% THEM gel
[5] = tested on: yeast 43S PIC: 40S+eIF1+eIF1A+eIF2 (Met-tRNAi TC); for mRNA recruitment also eIF5, eIF4A, eIF4B, eIF4E-eIF4G;eIF3 (g KLF) (Saccharomyces cerevisiae;Saccharomyces cerevisiae); assay: EMSA; details: measurement 1; m7G cap; 30 mM HEPES-KOH pH 7.4, 100 mM KOAc, 3 mM Mg(OAc)2, 2 mM DTT, 1 mM GDPNP, 26 C, 2 h; native 4% THEM gel
[6] = tested on: yeast 43S PIC: 40S+eIF1+eIF1A+eIF2 (Met-tRNAi TC); for mRNA recruitment also eIF5, eIF4A, eIF4B, eIF4E-eIF4G;eIF3 (a H725P) (Saccharomyces cerevisiae;Saccharomyces cerevisiae); assay: EMSA; details: measurement 1; m7G cap; 30 mM HEPES-KOH pH 7.4, 100 mM KOAc, 3 mM Mg(OAc)2, 2 mM DTT, 1 mM GDPNP, 26 C, 2 h; native 4% THEM gel
[7] = tested on: yeast 43S PIC: 40S+eIF1+eIF1A+eIF2 (Met-tRNAi TC); for mRNA recruitment also eIF5, eIF4A, eIF4B, eIF4E-eIF4G;eIF3 (a Box6) (Saccharomyces cerevisiae;Saccharomyces cerevisiae); assay: EMSA; details: measurement 1; m7G cap; 30 mM HEPES-KOH pH 7.4, 100 mM KOAc, 3 mM Mg(OAc)2, 2 mM DTT, 1 mM GDPNP, 26 C, 2 h; native 4% THEM gel
[8] = tested on: yeast 43S PIC: 40S+eIF1+eIF1A+eIF2 (Met-tRNAi TC); for mRNA recruitment also eIF5, eIF4A, eIF4B, eIF4E-eIF4G;eIF3 (b prt1-1) (Saccharomyces cerevisiae;Saccharomyces cerevisiae); assay: EMSA; details: measurement 1; m7G cap; 30 mM HEPES-KOH pH 7.4, 100 mM KOAc, 3 mM Mg(OAc)2, 2 mM DTT, 1 mM GDPNP, 26 C, 2 h; native 4% THEM gel
[9] = tested on: yeast 43S PIC: 40S+eIF1+eIF1A+eIF2 (Met-tRNAi TC); for mRNA recruitment also eIF5, eIF4A, eIF4B, eIF4E-eIF4G;eIF3 (b rnp1) (Saccharomyces cerevisiae;Saccharomyces cerevisiae); assay: EMSA; details: measurement 1; m7G cap; 30 mM HEPES-KOH pH 7.4, 100 mM KOAc, 3 mM Mg(OAc)2, 2 mM DTT, 1 mM GDPNP, 26 C, 2 h; native 4% THEM gel
[10] = tested on: yeast 43S PIC: 40S+eIF1+eIF1A+eIF2 (Met-tRNAi TC); for mRNA recruitment also eIF5, eIF4A, eIF4B, eIF4E-eIF4G;eIF3 (c Box12-SPW) (Saccharomyces cerevisiae;Saccharomyces cerevisiae); assay: EMSA; details: measurement 1; m7G cap; 30 mM HEPES-KOH pH 7.4, 100 mM KOAc, 3 mM Mg(OAc)2, 2 mM DTT, 1 mM GDPNP, 26 C, 2 h; native 4% THEM gel
[11] = tested on: yeast 43S PIC: 40S+eIF1+eIF1A+eIF2 (Met-tRNAi TC); for mRNA recruitment also eIF5, eIF4A, eIF4B, eIF4E-eIF4G;eIF3 (c delta60) (Saccharomyces cerevisiae;Saccharomyces cerevisiae); assay: EMSA; details: measurement 1; m7G cap; 30 mM HEPES-KOH pH 7.4, 100 mM KOAc, 3 mM Mg(OAc)2, 2 mM DTT, 1 mM GDPNP, 26 C, 2 h; native 4% THEM gel
[12] = tested on: yeast 43S PIC: 40S+eIF1+eIF1A+eIF2 (Met-tRNAi TC); for mRNA recruitment also eIF5, eIF4A, eIF4B, eIF4E-eIF4G;eIF3 WT (a/b/c/i/g) (Saccharomyces cerevisiae;Saccharomyces cerevisiae); assay: EMSA; details: measurement 1; m7G cap; 30 mM HEPES-KOH pH 7.4, 100 mM KOAc, 3 mM Mg(OAc)2, 2 mM DTT, 1 mM GDPNP, 26 C, 2 h; native 4% THEM gel
[13] = tested on: yeast 43S PIC: 40S+eIF1+eIF1A+eIF2 (Met-tRNAi TC); for mRNA recruitment also eIF5, eIF4A, eIF4B, eIF4E-eIF4G;eIF3 (i Q258R) (Saccharomyces cerevisiae;Saccharomyces cerevisiae); assay: EMSA; details: measurement 1; m7G cap; 30 mM HEPES-KOH pH 7.4, 100 mM KOAc, 3 mM Mg(OAc)2, 2 mM DTT, 1 mM GDPNP, 26 C, 2 h; native 4% THEM gel
[14] = tested on: yeast 43S PIC: 40S+eIF1+eIF1A+eIF2 (Met-tRNAi TC); for mRNA recruitment also eIF5, eIF4A, eIF4B, eIF4E-eIF4G;eIF3 (a Box37) (Saccharomyces cerevisiae;Saccharomyces cerevisiae); assay: EMSA; details: measurement 1; m7G cap; 30 mM HEPES-KOH pH 7.4, 100 mM KOAc, 3 mM Mg(OAc)2, 2 mM DTT, 1 mM GDPNP, 26 C, 2 h; native 4% THEM gel
[15] = tested on: yeast 43S PIC: 40S+eIF1+eIF1A+eIF2 (Met-tRNAi TC); for mRNA recruitment also eIF5, eIF4A, eIF4B, eIF4E-eIF4G;eIF3 (c GAP85) (Saccharomyces cerevisiae;Saccharomyces cerevisiae); assay: EMSA; details: measurement 1; m7G cap; 30 mM HEPES-KOH pH 7.4, 100 mM KOAc, 3 mM Mg(OAc)2, 2 mM DTT, 1 mM GDPNP, 26 C, 2 h; native 4% THEM gel
[16] = biological target: 43S pre-initiation complex (40S, eIF1, eIF1A, ternary complex; no mRNA) (S. cerevisiae) (UniProt P32911); assay: native gel or EMSA; gel shift monitoring [35S]-Met-tRNAi; 43S PICs without mRNA (1 µM eIF1, 1 µM eIF1A, 200 nM eIF2, 1 mM GDPNP•Mg2+, 2 nM Met-tRNAi, 30 nM 40S); eIF3 titrated 30-500 nM; 1X Recon buffer (30 mM HEPES-KOH pH 7.4, 100 mM KOAc, 3 mM Mg(OAc)2, 2 mM DTT), 26 °C, 2 h; apparent KD, Hill equation; single experiments; apparent affinities ≤ 30 nM likely upper limits

3'5-AUG model mRNA was tested, and the binding signal [1] was 50.3 % recruited, the binding signal ([2]; almost no recruitment) was 1.04 % recruited and the binding signal [3] was 73.6 % recruited. The binding signal ([4]; text: no recruitment) was 5.17 % recruited, the binding signal [5] was 72.6 % recruited and the binding signal [6] was 77.1 % recruited. For the same substance, the binding signal [7] was 73.3 % recruited, the binding signal [8] was 77.9 % recruited and the binding signal [9] was 66.2 % recruited. For the same substance, the binding signal [10] was 75.1 % recruited, the binding signal [11] was 78.3 % recruited and the binding signal [12] was 78.9 % recruited. It also gave a binding signal [13] of 71 % recruited, a binding signal [14] of 67.2 % recruited and a binding signal [15] of 81 % recruited.

In the case of 3'17-AUG model mRNA, the binding signal [2] was 71.4 % recruited, the binding signal [4] was 89.9 % recruited and the binding signal [12] was 97.2 % recruited.

5'5-AUG model mRNA showed a binding signal [1] of 32.1 % recruited, a binding signal [2] of 68.2 % recruited and a binding signal [3] of 57.7 % recruited. The binding signal [4] was 91.7 % recruited, the binding signal [5] was 84.7 % recruited and the binding signal [6] was 58.2 % recruited. The binding signal [7] was 62.5 % recruited, the binding signal [8] was 79.9 % recruited and the binding signal [9] was 69.4 % recruited. It also gave a binding signal [10] of 85.3 % recruited, a binding signal [11] of 87.9 % recruited and a binding signal [12] of 84.1 % recruited. For the same substance, the binding signal [13] was 80.3 % recruited, the binding signal [14] was 82.5 % recruited and the binding signal [15] was 80.1 % recruited.

For 5'11-AUG model mRNA, the binding signal [1] was 66.7 % recruited, the binding signal ([2]; columns as in Fig 5) was 90.9 % recruited and the binding signal [3] was 91.8 % recruited. The binding signal [6] was 94.6 % recruited, the binding signal [7] was 97.8 % recruited and the binding signal [12] was 97.9 % recruited.

For “eIF3 (wild type) (from UniProt P38249 1-964; P06103 1-763; P32497 1-812; P40217 1-347; Q04067 1-274) (complex)”, the pKd [16] was 7.37 and 7.62.
